# Source: patent US20110177071A1 (PERSEID THERAPEUTICS, published 2011)
# Changes are numbered by the printed parent chain. Numbers in names are those of the source.
# T1: human CD86-murine Ig fusion protein (human)
# T1 construct: Bought (Ancell #509-820); also called hCD86-mIg
# T1 chain: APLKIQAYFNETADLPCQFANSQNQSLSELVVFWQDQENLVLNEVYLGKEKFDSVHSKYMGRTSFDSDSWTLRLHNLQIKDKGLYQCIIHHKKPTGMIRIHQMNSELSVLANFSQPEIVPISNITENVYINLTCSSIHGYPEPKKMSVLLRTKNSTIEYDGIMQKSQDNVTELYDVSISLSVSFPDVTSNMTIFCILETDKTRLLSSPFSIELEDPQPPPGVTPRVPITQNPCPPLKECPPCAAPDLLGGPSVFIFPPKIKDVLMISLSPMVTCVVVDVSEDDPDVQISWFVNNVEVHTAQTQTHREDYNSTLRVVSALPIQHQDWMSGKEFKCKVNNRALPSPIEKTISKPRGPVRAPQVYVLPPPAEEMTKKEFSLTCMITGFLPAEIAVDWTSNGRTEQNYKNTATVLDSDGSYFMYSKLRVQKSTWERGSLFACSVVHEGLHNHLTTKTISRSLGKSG
# T2: human CD80-murine Ig fusion protein (human)
# T2 construct: Bought (Ancell #510-820); also called hCD80-mIg; human CD80-murine IgG
# T2 chain: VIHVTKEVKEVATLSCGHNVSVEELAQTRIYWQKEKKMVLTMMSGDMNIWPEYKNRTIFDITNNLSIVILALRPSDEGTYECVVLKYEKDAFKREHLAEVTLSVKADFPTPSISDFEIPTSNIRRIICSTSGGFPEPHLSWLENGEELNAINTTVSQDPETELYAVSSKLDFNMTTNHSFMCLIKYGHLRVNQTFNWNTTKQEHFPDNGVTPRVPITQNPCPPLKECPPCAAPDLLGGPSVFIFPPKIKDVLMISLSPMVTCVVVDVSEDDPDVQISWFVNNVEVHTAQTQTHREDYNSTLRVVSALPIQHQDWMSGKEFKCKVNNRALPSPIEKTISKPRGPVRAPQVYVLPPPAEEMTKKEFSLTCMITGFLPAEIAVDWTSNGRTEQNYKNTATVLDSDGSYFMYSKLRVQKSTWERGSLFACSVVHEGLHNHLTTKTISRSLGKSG
# B1: D1T-IgG2 (Fc fusion)
# chain: MHVAQPAVVLASSRGIASFVCEYESPHKANEIRVTVLRQANSQVTEVCAMTYMKGDELTFLDDPFCTGTFSGNQVNLTIQGLRAADTGLYICKVELMYPPPYYLGIGNGTQIYVIDPEPCPDSDERKCCVECPPCPAPPVAGPSVFLFPPKPKDTLMISRTPEVTCVVVDVSHEDPEVQFNWYVDGVEVHNAKTKPREEQFNSTFRVVSVLTVVHQDWLNGKEYKCKVSNKGLPAPIEKTISKTKGQPREPQVYTLPPSREEMTKNQVSLTCLVKGFYPSDIAVEWESNGQPENNYKTTPPMLDSDGSFFLYSKLTVDKSRWQQGNVFSCSVMHEALHNHYTQKSLSLSPG
# B2: D27-IgG2 (Fc fusion)
# chain: B1 chain with H27G, I32V, Q39E, N41G, K54V, G55E, F65S, I106L
# B3: D3-32-IgG2 (Fc fusion)
# chain: B1 chain with H27G, Q39K, N41D, F65S
# B4: D20-IgG2 (Fc fusion)
# chain: B1 chain with N30T, N41D, K54M, G55E, F65I, A85M
# B5: D3-76-IgG2 (Fc fusion)
# chain: B1 chain with E24A, H27G, I32V, N41D, G55E, F65I, A85M
# B6: D26-IgG2 (Fc fusion)
# chain: B1 chain with S25A, I32V, Q39E, N41G, K54V, G55E, F65S, I106L
# B7: D3-23-IgG2 (Fc fusion)
# chain: B1 chain with H27G, N41D, D56N, F65S, I106F
# B8: D23-IgG2 (Fc fusion)
# chain: B1 chain with E24S, S25A, K28N, N30A, Q39K, N41G, G55E, F65S, I106L
# B9: D3-21-IgG2 (Fc fusion)
# chain: B1 chain with H27G, N41D, D56N, F65S, A85M, I106F
# B10: D3-30-IgG2 (Fc fusion)
# chain: B1 chain with H27G, N41D, F65I, A85M
# B11: D5-IgG2 (Fc fusion)
# chain: B1 chain with E24A, H27G, N30T, I32V, N41D, M50A, K54M, F65I, A85M
# B12: D28-IgG2 (Fc fusion)
# chain: B1 chain with S25A, I32V, N41G, K54M, G55E, F65S, I106L
# B13: D6-IgG2 (Fc fusion)
# chain: B1 chain with E24A, H27G, N30T, N41D, K54M, F65I, A85M
# B14: D4-IgG2 (Fc fusion)
# chain: B1 chain with E24S, H27G, N30D, N41S, K54E, F65T, A85V, I106F
# notes: also called clone D4
# B15: D3-28-IgG2 (Fc fusion)
# chain: B1 chain with H27G, N41D, D56N, F65I, A85M
# B16: D3-22-IgG2 (Fc fusion)
# chain: B1 chain with H27G, N41G, D56N, F65S, A85M
# B17: D3-26-IgG2 (Fc fusion)
# chain: B1 chain with E24A, H27G, N41D, D56N, F65S, A85M
# B18: D3-33-IgG2 (Fc fusion)
# chain: B1 chain with H27G, Q39K, N41D, G55E, F65S
# B19: D3-16-IgG2 (Fc fusion)
# chain: B1 chain with H27G, N41G, F65S, A85M
# B20: D3-8-IgG2 (Fc fusion)
# chain: B1 chain with H27G, N41G, P64S, F65S, I106F
# B21: D21-IgG2 (Fc fusion)
# chain: MHVAQPAVVLASSRGIASFVCEYSAPHNADEIRVTVLRKASSQVTEVCAMTYMEEDELTFLDDPTCTGTFSGNQVNLTIQGLRAVDTGLYICKVELMYPPPYYLGFGNGTQIYVIDPEPCPDSDERKCCVECPPCPAPPVAGPSVFLFPPKPKDTLMISRTPEVTCVVVDVSHEDPEVQFNWYVDGVEVHNAKTKPREEQFNSTFRVVSVLTVVHQDWLNGKEYKCKVSNKGLPAPIEKTISKTKGQPREPQVYTLPPSREEMTKNQVSLTCLVKGFYPSDIAVEWESNGQPENNYKTTPPMLDSDGSFFLYSKLTVDKSRWQQGNVFSCSVMHEALHNHYTQKSLSLSPG
# B22: D3-9-IgG2 (Fc fusion)
# chain: B1 chain with H27G, N41G, F65I, I106F
# B23: D24-IgG2 (Fc fusion)
# chain: B1 chain with H27G, Q39K, N41G, G55E, F65S, I106L
# B24: D3-19-IgG2 (Fc fusion)
# chain: B1 chain with H27G, N41D, D56N, F65S
# B25: D3-24-IgG2 (Fc fusion)
# chain: B1 chain with H27G, N41G, D56N, F65S, A85M, I106F
# B26: D3-5-IgG2 (Fc fusion)
# chain: B1 chain with H27G, N41G, M50A, F65S, I106F
# B27: D3-66-IgG2 (Fc fusion)
# chain: B1 chain with E24A, H27G, I32V, N41D, F65I, A85M, L104E
# B28: D3-25-IgG2 (Fc fusion)
# chain: B1 chain with H27G, N41G, D56N, F65S
# B29: D3-74-IgG2 (Fc fusion)
# chain: B1 chain with E24A, H27G, N41D, D56N, F65I, A85M, L104E
# B30: D3-1-IgG2 (Fc fusion)
# chain: B1 chain with E24A, H27G, N41G, F65S, I106F
# B31: D31-IgG2 (Fc fusion)
# chain: B21 chain with S24E, K39Q, S41G, E54V, D63K, P64S, T65I, V85M, F106I
# B32: D29-IgG2 (Fc fusion)
# chain: B21 chain with S24E, N28K, S41D, E54M, T65S, V85M, F106L
# B33: D3-7-IgG2 (Fc fusion)
# chain: B1 chain with H27G, N41G, D56N, F65S, I106F
# notes: also called D3-07
# Molecular target: T1, human CD86-murine Ig fusion protein
# Assay: SPR Biacore, hCD86-mIg captured
# Protocol: (§1) All Biacore™ analyses were performed on a Biacore™ 2000 system (GE Healthcare) at room temperature (RT, 25° C.). HBS-EP buffer (10 mM HEPES (pH 7.4), 150 mM NaCl, 3 mM EDTA, 0.005% surfactant P20) was used as the flow buffer for all experiments.
# (§2) Rabbit anti-mouse IgG antibody (GE Healthcare, #BR-1005-14) was immobilized on CM5 sensor chips (GE Healthcare, #BR-1000-14) according to the manufacturer's protocol. Antibody was diluted to 30 μg/ml in immobilization buffer (10 mM sodium acetate, pH 5.0 (BR-1003-51)). At a flow rate of 5 μl/minute, sensor chip CM5 was activated with a 35 μl injection of a mixture of 1-Ethyl-3-[3-dimethylaminopropyl]carbodiimide hydrochloride (EDC) and N-hydroxysuccinimide (NHS) (made by mixing equal volumes of 11.5 mg/ml EDC and 75 mg/ml NHS) (GE Healthcare, #BR-1000-50), followed by a 35 μl injection of undiluted antibody. Un-reacted sites were quenched with 35 μl of 1M ethanolamine-HCL, pH 8.5 (GE Healthcare, #BR-1000-50). […] CTLA-4 ligands human CD80-murine Ig (hCD80-mIg) (Ancell, #510-820) or human CD86-murine Ig (hCD86-mIg) (Ancell, #509-820) were bound to antibody-coated sensor chips by injection of 10 μl or 16 μl, respectively, ligand solution (2 μg/ml protein in HBS-EP buffer [10 mM HEPES pH 7.4, 150 mM NaCl, 3 mM EDTA, 0.005% (v/v) surfactant P-20, GE Healthcare, #BR-1001-88]) at a flow rate of 10 μl/min.
Kd,Binding Avidity (Relative to Orencia),Binder
262 to 523 pM,–,B1
< 131 pM,> 40 fold,B2
< 131 pM,> 40 fold,B3
131 to 262 pM,–,B4
< 131 pM,> 40 fold,B5
< 131 pM,> 40 fold,B6
131 to 262 pM,–,B7
< 131 pM,> 40 fold,B8
131 to 262 pM,–,B9
131 to 262 pM,–,B10
523 to 2650 pM,–,B11
< 131 pM,> 40 fold,B12
523 to 2650 pM,–,B13
523 to 2650 pM,–,B14
262 to 523 pM,–,B15
131 to 262 pM,–,B16
131 to 262 pM,–,B17

Kd,Binding Avidity (Relative to Orencia),Binder
< 131 pM,> 40 fold,B18
< 131 pM,> 40 fold,B19
131 to 262 pM,–,B20
131 to 262 pM,–,B21
< 131 pM,> 40 fold,B22
< 131 pM,> 40 fold,B23
131 to 262 pM,–,B24
131 to 262 pM,–,B25
131 to 262 pM,–,B26
< 131 pM,> 40 fold,B27
131 to 262 pM,–,B28
< 131 pM,> 40 fold,B29
< 131 pM,> 40 fold,B30
131 to 262 pM,–,B31
< 131 pM,> 40 fold,B32
< 131 pM,> 40 fold,B33

# Molecular target: T2, human CD80-murine Ig fusion protein
# Assay: SPR Biacore, hCD80-mIg captured
# Protocol: as §1, §2
Binding Avidity (Relative to Orencia),Kd,Binder
> 2 fold,< 439 pM,B1
–,439 to 1750 pM,B2
–,439 to 1750 pM,B3
–,439 to 1750 pM,B4
–,439 to 1750 pM,B5
–,439 to 1750 pM,B6
–,439 to 1750 pM,B7
> 2 fold,< 439 pM,B8
–,439 to 1750 pM,B9
–,439 to 1750 pM,B10
–,439 to 1750 pM,B11
–,439 to 1750 pM,B12
–,439 to 1750 pM,B13
–,439 to 1750 pM,B14
–,439 to 1750 pM,B15
–,439 to 1750 pM,B16
–,439 to 1750 pM,B17

Binding Avidity (Relative to Orencia),Kd,Binder
–,439 to 1750 pM,B18
–,439 to 1750 pM,B19
–,439 to 1750 pM,B20
–,439 to 1750 pM,B21
–,439 to 1750 pM,B22
–,439 to 1750 pM,B23
–,439 to 1750 pM,B24
–,439 to 1750 pM,B25
–,439 to 1750 pM,B26
> 2 fold,< 439 pM,B27
–,439 to 1750 pM,B28
> 2 fold,< 439 pM,B29
–,439 to 1750 pM,B30
–,439 to 1750 pM,B31
–,439 to 1750 pM,B32
–,439 to 1750 pM,B33
